Key:
[1] = target: T1, recombinant human Trop-2 (Sino Biological, Cat. No: 10428-H08H) (human, UniProt P09758 27-274); experiment: ELISA, recombinant human Trop-2 coated at 1 ug/mL, anti-human IgG-HRP
T1 construct: Coated on the ELISA plate
T1 sequence (looked up): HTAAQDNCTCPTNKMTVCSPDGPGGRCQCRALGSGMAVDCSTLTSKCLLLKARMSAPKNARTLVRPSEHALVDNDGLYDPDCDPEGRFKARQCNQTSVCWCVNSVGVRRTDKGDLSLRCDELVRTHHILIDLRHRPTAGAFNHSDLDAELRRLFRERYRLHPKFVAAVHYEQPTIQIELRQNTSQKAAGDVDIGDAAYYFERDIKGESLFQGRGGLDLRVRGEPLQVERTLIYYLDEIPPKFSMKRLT

Trop-2 on BxPC3 cells = target: T2, Trop-2 on BxPC3 cells (UniProt P09758 27-323, limits assumed); experiment: flow cytometry of PKH26-stained BxPC3 and CFSE-stained Jurkat cells, as in Example 9
T2 construct: whole, on cells; also called BxPC3 cells with high expression Trop-2
T2 sequence (looked up): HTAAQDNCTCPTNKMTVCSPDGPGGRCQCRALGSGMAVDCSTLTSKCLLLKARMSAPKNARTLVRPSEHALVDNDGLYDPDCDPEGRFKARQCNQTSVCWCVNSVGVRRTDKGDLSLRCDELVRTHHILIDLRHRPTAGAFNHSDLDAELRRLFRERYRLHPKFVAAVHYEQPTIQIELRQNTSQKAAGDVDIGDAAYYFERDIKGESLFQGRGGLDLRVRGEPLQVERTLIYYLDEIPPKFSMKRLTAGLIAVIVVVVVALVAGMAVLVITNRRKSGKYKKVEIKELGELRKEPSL

B1: heterodimeric anti-Trop-2/anti-CD3-scFv bispecific antibody (bispecific antibody)
heavy: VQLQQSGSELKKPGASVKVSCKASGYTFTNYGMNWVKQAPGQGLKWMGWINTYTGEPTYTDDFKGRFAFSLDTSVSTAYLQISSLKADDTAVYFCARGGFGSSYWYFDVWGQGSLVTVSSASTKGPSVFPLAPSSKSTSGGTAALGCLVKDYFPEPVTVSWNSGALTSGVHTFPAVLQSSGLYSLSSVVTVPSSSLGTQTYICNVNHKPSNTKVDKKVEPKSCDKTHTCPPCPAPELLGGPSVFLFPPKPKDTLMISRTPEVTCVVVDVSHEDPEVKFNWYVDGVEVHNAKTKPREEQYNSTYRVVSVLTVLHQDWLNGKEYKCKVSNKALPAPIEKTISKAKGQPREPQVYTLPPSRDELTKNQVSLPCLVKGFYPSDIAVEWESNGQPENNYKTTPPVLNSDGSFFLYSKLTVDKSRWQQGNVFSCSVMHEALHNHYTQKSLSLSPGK
light: DIQLTQSPSSLSASVGDRVSITCKASQDVSIAVAWYQQKPGKAPKLLIYSASYRYTGVPDRFSGSGSGTDFTLTISSLQPEDFAVYYCQQHYITPLTFGAGTKVEIKRTVAAPSVFIFPPSDEQLKSGTASVVCLLNNFYPREAKVQWKVDNALQSGNSQESVTEQDSKDSTYSLSSTLTLSKADYEKHKVYACEVTHQGLSSPVTKSFNRGEC
scFv: not shown
notes: also called anti-Trop2/anti CD3-scFv heterodimer; Anti-Trop-2/CD3 heterodimeric BsAb
- binding result [1]: binds
- binding result (Trop-2 on BxPC3 cells): binds
